For 94 variants, protein stability index results are on record in the supplement of paper PMC10567573.

First the molecules themselves.
B1: PRIM1 (parent)
chain: CCSSADICPKCWTLMTMAIRIIDR
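Further: lentivirally expressed fusions sorted by FACS into six bins by GFP to DsRed ratio, PSI derived from sequencing read proportions per bin multiplied by bin number.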

The variants in the data set derive from B1. Briefly: protein stability index of a GFP-peptide fusion (GPS, HEK-293T) (PSI 1-6); higher = more stable. The settings on record: c terminus: a fixed tail appended.
Regarding CCSSADICPKCWTLMFMAIRIIDR, the protein stability index was determined as 2.12.
In the case of CCSSADICPKCWTLMHMAIRIIDR it was 2.04.
In the case of CCSSADICPKCWTLMRMAIRIIDR it was 1.95.
In the case of CCSSADICPKCWTLMLMAIRIIDR it was 2.
CCSSADICPKCWTLMCMAIRIIDR: the protein stability index turned out to be 1.61.
The value for CCSSADICPKCWTLMQMAIRIIDR was 2.54.
The value for CCSSADICPKCWTLMNMAIRIIDR was 2.37; that for CCSSADICPKCWTLMTMAIAIIDR was 1.93; that for CCSSADICPKCWTLMTMAIEIIDR was 1.83.
In the case of CCSSADICPKCWTLMTMAICIIDR it was 1.96; in that of CCSSADICPKCWTLMTMAIPIIDR, 2.25.
Consider CCSSADICPKCWTLMTMAIDIIDR, for which the protein stability index was found to be 1.5.
The value for CCSSADICPKCWTLMTMAIQIIDR was 3.56.
The value for CCSSADICPKCWTLMTMAIVIIDR was 1.96; that for CCSSADICPKCWTLMTMAISIIDR was 2.01; that for CCSSADICPKCWTLMTMAINIIDR was 2.18.
In the case of CCSSADICPKCWTLMTMAIFIIDR it was 1.46; in that of CCSSADICPKCWTLMTMAIIIIDR, 1.33; in that of CCSSADICPKCWTLMTMAIHIIDR, 2.05.
With CCSSADICPKCWTLMTMAIKIIDR, the protein stability index turned out to be 1.19.
The value for CCSSADICPKCWTLMTMAIGIIDR was 2.23; that for CCSSADICPKCWTLMTMAIWIIDR was 1.65; that for CCSSADICPKCWTLMTMAITIIDR was 1.67.
The value for CCSSADICPKCWTLMTMAILIIDR was 1.77; that for CCSSADICPKCWTLMTMAIYIIDR was 1.91.
On to CCSSADICPKCWTLMTMWIRIIDR, for which the protein stability index came to 2.92.
In the case of CCSSADICPKCWTLMTMMIRIIDR it was 1.24; in that of CCSSADICPKCWTLMTMEIRIIDR, 1.45; in that of CCSSADICPKCWTLMTMRIRIIDR, 1.94.
In the case of CCSSADICPKCWTLMTMQIRIIDR it was 2.71; in that of CCSSADICPKCWTLMTMVIRIIDR, 2.18.
The value for CCSSADICPKCWTLMTMFIRIIDR was 1.64.
Consider CCSSADICPKCWTLMTMCIRIIDR, for which the protein stability index came to 2.45.
With CCSSADICPKCWTLMTMTIRIIDR, the protein stability index was 1.56.
For the variant CCSSADICPKCWTLMTMHIRIIDR, the protein stability index stood at 2.1.
The value for CCSSADICPKCWTLMTMYIRIIDR was 1.34.
On to CCSSADICPKCWTLMTMKIRIIDR, for which the protein stability index amounted to 2.17.
Turning to CCSSADICPKCWTLMTMDIRIIDR, the protein stability index worked out at 2.39.
Regarding CCSSADICPKCWTLMTMLIRIIDR, the protein stability index worked out at 2.3.
In the case of CCSSADICPKCWTLMTMIIRIIDR it was 1.79.
The value for CCSSADICPKCWTLMTMPIRIIDR was 2.1.
In the case of CCSSADICPKCWTLMTMGIRIIDR it was 2.06; in that of CCSSADICPKCWTLMTMAIRINDR, 2.52.
CCSSADICPKCWTLMTMAIRITDR: the protein stability index worked out at 2.97.
In the case of CCSSADICPKCWTLMTMAIRIPDR, the protein stability index stood at 2.71.
The value for CCSSADICPKCWTLMTMAIRIMDR was 1.8; that for CCSSADICPKCWTLMTMAIRIRDR was 2.5.
In the case of CCSSADICPKCWTLMTMAIRIVDR it was 2.34; in that of CCSSADICPKCWTLMTMAIRIWDR, 1.72.
The value for CCSSADICPKCWTLMTMAIRIYDR was 2.09.
CCSSADICPKCWTLMTMAIRILDR: the protein stability index worked out at 2.3.
On to CCSSADICPKCWTLMTMAIRIFDR, for which the protein stability index turned out to be 1.59.
Take CCSSADICPKCWTLMTMAIRIHDR: the protein stability index is 1.9.
For the variant CCSSADICPKCWTLMTMAIRIADR, the protein stability index amounted to 2.1.
Take CCSSADICPKCWTLMTMAIRIKDR: the protein stability index amounted to 2.94.
The value for CCSSADICPKCWTLMTMAIRISDR was 1.6; that for CCSSADICPKCWTLMTMAIRIQDR was 2.81.
In the case of CCSSADICPKCWTLMTMAIRIGDR it was 2.44; in that of CCSSADICPKCWTLMTMAIRIEDR, 2.57; in that of CCSSADICPKCWTLMTMAIRDIDR, 2.68.
For CCSSADICPKCWTLMTMAIRGIDR, the protein stability index amounted to 2.2.
In the case of CCSSADICPKCWTLMTMAIRLIDR it was 1.49; in that of CCSSADICPKCWTLMTMAIRQIDR, 2.05.
The value for CCSSADICPKCWTLMTMAIRAIDR was 2.2; that for CCSSADICPKCWTLMTMAIRPIDR was 2.28; that for CCSSADICPKCWTLMTMAIRNIDR was 2.46.
The value for CCSSADICPKCWTLMTMAIRMIDR was 1.89.
Turning to CCSSADICPKCWTLMTMAIRKIDR, the protein stability index turned out to be 2.35.
Regarding CCSSADICPKCWTLMTMAIRRIDR, the protein stability index came out at 2.75.
Take CCSSADICPKCWTLMTMAIRWIDR: the protein stability index was 1.9.
In the case of CCSSADICPKCWTLMTMAIRVIDR it was 1.67; in that of CCSSADICPKCWTLMTMAIRCIDR, 1.94.
As for CCSSADICPKCWTLMTMAIRTIDR, the protein stability index worked out at 1.68.
Regarding CCSSADICPKCWTLMTMAIRFIDR, the protein stability index came out at 1.39.
The value for CCSSADICPKCWTLMTMAIRYIDR was 1.73.
The value for CCSSADICPKCWTLMTMAIREIDR was 1.58; that for CCSSADICPKCWTLMTMAIRHIDR was 2.23.
The value for CCSSADICPKCWTLMTMAPRIIDR was 2.8; that for CCSSADICPKCWTLMTMADRIIDR was 2.92; that for CCSSADICPKCWTLMTMAWRIIDR was 1.83.
Regarding CCSSADICPKCWTLMTMAERIIDR, the protein stability index was determined as 2.48.
In the case of CCSSADICPKCWTLMTMAARIIDR it was 1.93; in that of CCSSADICPKCWTLMTMAVRIIDR, 2.58.
In the case of CCSSADICPKCWTLMTMAKRIIDR it was 2.77; in that of CCSSADICPKCWTLMTMAFRIIDR, 1.57.
The value for CCSSADICPKCWTLMTMAMRIIDR was 2.33; that for CCSSADICPKCWTLMTMAQRIIDR was 1.81.
Consider CCSSADICPKCWTLMTMAHRIIDR, for which the protein stability index was determined as 2.8.
The value for CCSSADICPKCWTLMTMALRIIDR was 2.12; that for CCSSADICPKCWTLMTMANRIIDR was 2.89.
In the case of CCSSADICPKCWTLMTMATRIIDR, the protein stability index was 2.98.
In the case of CCSSADICPKCWTLMTMASRIIDR it was 2.6.
The value for CCSSADICPKCWTLMTMAYRIIDR was 2.05; that for CCSSADICPKCWTLMTMAGRIIDR was 2.21.
